This experiment has as its target T1, human acid ceramidase (aCDase, ASAH1) β-subunit (human, UniProt Q13510 143-395, N-glycosylated (insect cell glycans); disulfide C340 to C31 of the α-subunit; disulfide C388/C392).
T1 construct: acid ceramidase, human, UniProt Q13510; the construct spans residues 22-395 and autocleaves before Cys 143, which becomes the N terminus of the β-subunit: residues 143-395; Made as one chain with the α-subunit and set free by autocleavage; also called 30 kDa β-subunit
T1 sequence (looked up): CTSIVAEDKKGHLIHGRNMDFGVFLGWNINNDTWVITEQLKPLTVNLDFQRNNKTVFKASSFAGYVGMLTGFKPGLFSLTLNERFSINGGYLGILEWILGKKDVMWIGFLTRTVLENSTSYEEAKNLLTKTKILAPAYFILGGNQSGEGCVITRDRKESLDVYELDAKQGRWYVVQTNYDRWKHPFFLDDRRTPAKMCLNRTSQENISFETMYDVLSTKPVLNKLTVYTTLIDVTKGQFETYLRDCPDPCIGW
Put plainly: crystal structure; autocleaved human aCDase, incubated with 1 mM ceranib-2 and 1 mM Triton X-100, crystallised at 22 °C in 100 mM sodium phosphate-citrate pH 4.3, 200 mM Li2SO4, 20% PEG 1000; the two subunits come from one chain and are also linked by a disulfide. The note with it: both partners purified.

B1: human acid ceramidase (aCDase, ASAH1) α-subunit (domain or fragment, UniProt Q13510 22-142, looked up)
chain: QHAPPWTEDCRKSTYPPSGPTYRGAVPWYTINLDLPPYKRWHELMLDKAPVLKVIVNSLKNMINTFVPSGKVMQVVDEKLPGLLGNFPGPFEEEMKGIAAVTDIPLGEIISFNIFYELFTI
modifications: N-glycosylated (insect cell glycans); disulfide C31 to C340 of the β-subunit
notes: acid ceramidase, human, UniProt Q13510 variant Ile93Val; the construct spans residues 22-395 and autocleaves at the peptide bond between Ile 142 and Cys 143, so the α-subunit is residues 22-142; no removal of the tag is told; Residues 141 and 142 are disordered in the structure; also called 13 kDa α-subunit
B1: the binding result was “binds”.
